Laboratory results: paper PMC2891831, “Insight into the Mechanisms of Adenovirus Capsid Disassembly from Studies of Defensin Neutralization” (PLoS Pathogens, 2010)
Entries after “also recorded” stand apart in the source; their conditions may differ.

Legend:
HAdV species E = assay: Infection assay (hexon staining), HAdV species E; format: cell-based, human adenovirus; details: 15 µM HD5, A549 cells, hexon staining at ~48 h, vs. no defensin
Procedure: (§1) To determine whether sensitivity to α-defensins is a general property of HAdVs, serotypes representative of HAdV species A–F were tested for infectivity in the presence of 15 µM HD5 or HNP1 (Figure 1). Wild type HAdVs rather than vectors were used for these studies, and infectivity was assessed by staining for hexon production. […] These studies indicate that sensitivity to α-defensins is species specific. In addition, particular HAdV serotypes are not equally sensitive to all defensins, indicating defensin sequence specificity as well.
(§2) Figure 1 Sensitivity to neutralization by alpha-defensins is AdV species specific. HAdVs were incubated with 15 µM HD5 (A) or HNP1 (B) and assessed for infectivity on A549 cells. Data are the mean of the percent infectivity compared to control cells infected with each virus in the absence of defensin for at least three independent experiments ± SD. The upper limit for quantification of this assay is 200%. […]
(§3) Prior to use in this assay, each virus stock was titrated on A549 cells. […] In parallel, wells were infected with two-fold serial dilutions of each virus to establish a standard curve for quantification with an upper limit of 200%. […] Total well fluorescence above background was quantified with ImageJ software. For each virus, samples were quantified by nonlinear regression against the standard curve using Prism software (GraphPad Software, Inc., La Jolla, CA).

HAdV-D serotypes = assay: Infection assay (hexon staining), HAdV species D; format: cell-based, human adenovirus; details: 15 µM HD5, A549 cells, hexon staining at ~48 h, vs. no defensin; upper limit 200%
Procedure: as §1, §2, §3

HAdV-F serotypes = assay: Infection assay (hexon staining), HAdV species F; format: cell-based, human adenovirus; details: 15 µM HD5, A549 cells, hexon staining at ~48 h, vs. no defensin; upper limit 200%
Procedure: as §1, §2, §3

HAdV-51p = assay: Virus-defensin binding assay, HAdV-51p; set-up: species or system human adenovirus
Text: Figure 2 HD5 binding to HAdV. A) HD5 binding to a representative defensin-sensitive serotype (HAdV-5) was quantified by an equilibrium-binding assay. Data are the mean of the number of HD5 molecules bound per virion at the indicated HD5 concentrations from at least three independent experiments ± SD. Binding curves were fitted using Prism software. B) Binding of HD5 to additional defensin-sensitive (HAdV-7p) and resistant (HAdV-19c, -25p, -51p) serotypes expressed as a percent of HD5 bound to HAdV-5. Data are the mean of two or three independent experiments ± SD.
We assessed HD5 binding to additional serotypes after incubation with 20 µM HD5 (Figure 2B). The sensitive serotype HAdV-7p bound 69.3±15.9% of the amount of HD5 bound to HAdV-5 in parallel samples; whereas, the corresponding values for the resistant serotypes HAdV-19c, -25p, and -51p were 32.5±7.5%, 3.3±5.8%, and 24.6±12.0%, respectively.
To measure HD5 binding to HAdV-5 and -51, HD5 was serially diluted in PBS and mixed with 5 µg purified virus. […] The other half of each sample was used to make a standard curve for quantification. […] Virus bands were quantified using ImageQuant NT software (GE Healthcare). […] The amount of HD5 in the centrifuged samples was then quantified against the standard curve using Prism software. […]

19cPB = assay: Infection assay, 19cPB virus chimera; format: cell-based, human adenovirus; details: 5 µM and 10 µM HD5, A549 cells; at least three independent experiments; neutralized only at 10 µM
Text: The availability of sensitive (e.g., HAdV-5) and resistant (e.g., HAdV-19c) serotypes provided a means to test this HD5 neutralization model by generating virus chimeras. Initially, virus chimeras were constructed by replacing the sequences for fiber, penton base, and hexon in the HAdV-5 genome with the corresponding sequences from HAdV-19c. Consistent with previous studies, [38], the virus chimera containing the HAdV-19c hexon is not viable; however, constructs containing the HAdV-19c fiber (19cF) or penton base (19cPB) are capable of replicating. […] In contrast, the 19cPB virus has an intermediate phenotype.
Figure 6 Neutralization determinants are located in fiber and penton base. A) Schematic of chimeric viruses. […] B) Each of the chimeric viruses was incubated with 5 µM (grey) or 10 µM (black) HD5 and assessed for infectivity on A549 cells. […] The upper limit for quantification of this assay is 200%.
as §3

PB/GYAR = assay: Virus-defensin binding assay, PB/GYAR; set-up: species or system human adenovirus; details: studies equivalent to Figure 2B, data not shown
Procedure: We then combined the GYAR substitution with the PB substitution in a single construct (PB/GYAR).
To measure HD5 binding to HAdV-5 and -51, HD5 was serially diluted in PBS and mixed with 5 µg purified virus. After 1 h incubation on ice, one half of each sample was separated by ultracentrifugation [209,000×g (avg.) for 2 hrs at 4°C] on a discontinuous gradient consisting of 300 µl of 30% nycodenz and 200 µl of 80% nycodenz in 50 mM NaCl, 20 mM HEPES pH 7.4 using an SW55ti rotor with adaptors (Beckman Coulter, Inc.). The visible virus band was collected. The other half of each sample was used to make a standard curve for quantification. All samples were boiled in reducing loading buffer and separated using a 16% PAGEgel (Expedeon, Inc., San Diego, CA) or 10–20% Tris-Tricine gel (Bio-Rad, Hercules, CA). The gels were stained with Deep Purple (GE Healthcare) and imaged on a Typhoon Trio. Virus bands were quantified using ImageQuant NT software (GE Healthcare). The amount of HD5 in each sample was normalized to protein V and hexon. The amount of HD5 in the centrifuged samples was then quantified against the standard curve using Prism software. Affinity and stoichiometry were estimated from the average data of at least three independent experiments using Prism software.

HAdV-7 = assay: Virus-defensin binding, HAdV-7; set-up: species or system human adenovirus

B1: HD5: human alpha-defensin; synthetic, obtained from Peptides International; three disulfide bonds (PDB 1ZMP) (peptide, UniProt Q01523 20-94, looked up)
Defensin alpha 5: ESLQERADEATTQKQSGEDNQDLAISFAGNGLSALRTSGSQARATCYCRTGRCATRESLSGVCEISGRLYRLCCR
modifications: Defensin-5
sensitivity to neutralization (infectivity) (HAdV species E): sensitive | sensitivity to neutralization (infectivity) (HAdV-D serotypes): completely resistant to HD5-mediated neutralization and, in most cases, infection is actually enhanced | sensitivity to neutralization (infectivity) (HAdV-F serotypes): completely resistant to HD5-mediated neutralization and, in most cases, infection is actually enhanced | HD5 bound, percent of HD5 bound to HAdV-5 (HAdV-51p; 20 µM HD5, mean of two or three independent experiments ± SD): 24.6±12.0% | level of HD5 binding (in words) (HAdV-51p; HAdV-51p): only a low level of binding | sensitivity to HD5 neutralization (19cPB): partially neutralized by HD5 but only at the higher concentration tested (10 µM) | amount of HD5 bound compared to HAdV-5 (PB/GYAR): did not detect a reduction in the amount of HD5 bound; also recorded: did not result in a noticeable reduction in overall HD5 binding | level of HD5 binding (in words) (HAdV-7): specific binding
